{"source": "patent US20120171195A1", "key": {"[1]": {"molecular_target": "HLA-B*4501 (B45) (human)", "assay": "Luminex single-antigen beads; MEM-E/02 1/600; serum Mi92 1/100"}, "[2]": {"molecular_target": "HLA-B*1801 (B18) (human)", "assay": "Luminex single-antigen beads; MEM-E/02 1/600; serum Mi92 1/100"}, "[3]": {"molecular_target": "HLA-B*0801 (B8) (human) (UniProt P01889)", "assay": "Luminex single-antigen beads; MEM-E/02 1/600; serum Mi92 1/100"}, "[4]": {"molecular_target": "HLA-A*3002 (A30) (human) (UniProt P04439)", "assay": "Luminex single-antigen beads; MEM-E/02 1/600; serum Mi92 1/100"}, "[5]": {"molecular_target": "HLA-B*3901 (B39) (human) (UniProt P01889)", "assay": "Luminex single-antigen beads; MEM-E/02 1/600; serum Mi92 1/100"}, "[6]": {"molecular_target": "HLA-B*4901 (B49) (human)", "assay": "Luminex single-antigen beads; MEM-E/02 1/600; serum Mi92 1/100"}, "[7]": {"molecular_target": "HLA-A*2501 (A25) (human)", "assay": "Luminex single-antigen beads; MEM-E/02 1/600; serum Mi92 1/100"}, "[8]": {"molecular_target": "HLA-B*1301 (B13) (human)", "assay": "Luminex single-antigen beads; MEM-E/02 1/600; serum Mi92 1/100"}, "[9]": {"molecular_target": "HLA-B*3801 (B38) (human)", "assay": "Luminex single-antigen beads; MEM-E/02 1/600; serum Mi92 1/100"}, "[10]": {"molecular_target": "HLA-B*4403 (B44) (human)", "assay": "Luminex single-antigen beads; MEM-E/02 1/600; serum Mi92 1/100"}, "[11]": {"molecular_target": "HLA-A*2601 (A26) (human)", "assay": "Luminex single-antigen beads; MEM-E/02 1/600; serum Mi92 1/100"}, "[12]": {"molecular_target": "HLA-A*2402 (A24) (human) (UniProt P04439)", "assay": "Luminex single-antigen beads; MEM-E/02 1/600; serum Mi92 1/100"}, "[13]": {"molecular_target": "HLA-Cw*1203 (Cw12) (human) (UniProt P10321)", "assay": "Luminex single-antigen beads; MEM-E/02 1/600; serum Mi92 1/100"}, "[14]": {"molecular_target": "HLA-Cw*0401 (Cw4) (human)", "assay": "Luminex single-antigen beads; MEM-E/02 1/600; serum Mi92 1/100"}, "[15]": {"molecular_target": "HLA-A*3301 (A33) (human)", "assay": "Luminex single-antigen beads; MEM-E/02 1/600; serum Mi92 1/100"}, "[16]": {"molecular_target": "HLA-B*5301 (B53) (human)", "assay": "Luminex single-antigen beads; MEM-E/02 1/600; serum Mi92 1/100"}, "[17]": {"molecular_target": "HLA-B*4801 (B48) (human) (UniProt P01889)", "assay": "Luminex single-antigen beads; MEM-E/02 1/600; serum Mi92 1/100"}, "[18]": {"molecular_target": "HLA-B*1513 (B77) (human)", "assay": "Luminex single-antigen beads; MEM-E/02 1/600; serum Mi92 1/100"}, "[19]": {"molecular_target": "HLA-B*2708 (B27) (human) (UniProt P01889)", "assay": "Luminex single-antigen beads; MEM-E/02 1/600; serum Mi92 1/100"}, "[20]": {"molecular_target": "HLA-Cw*0801 (Cw8) (human) (UniProt P10321)", "assay": "Luminex single-antigen beads; rank of MEM-E/02 reactivity among HLA-Ia alleles"}, "[21]": {"molecular_target": "HLA-B*1801 (B18) (human)", "assay": "Luminex single-antigen beads; rank of MEM-E/02 reactivity among HLA-Ia alleles"}, "[22]": {"molecular_target": "HLA-B*0801 (B8) (human) (UniProt P01889)", "assay": "Luminex single-antigen beads; rank of MEM-E/02 reactivity among HLA-Ia alleles"}, "[23]": {"molecular_target": "HLA-A*2501 (A25) (human)", "assay": "Luminex single-antigen beads; rank of MEM-E/02 reactivity among HLA-Ia alleles"}, "[24]": {"molecular_target": "HLA-B*3801 (B38) (human)", "assay": "Luminex single-antigen beads; rank of MEM-E/02 reactivity among HLA-Ia alleles"}, "[25]": {"molecular_target": "HLA-B*4403 (B44) (human)", "assay": "Luminex single-antigen beads; rank of MEM-E/02 reactivity among HLA-Ia alleles"}, "[26]": {"molecular_target": "HLA-A*3201 (A32) (human)", "assay": "Luminex single-antigen beads; rank of MEM-E/02 reactivity among HLA-Ia alleles"}, "[27]": {"molecular_target": "HLA-A*2601 (A26) (human)", "assay": "Luminex single-antigen beads; rank of MEM-E/02 reactivity among HLA-Ia alleles"}, "[28]": {"molecular_target": "HLA-Cw*1701 (Cw17) (human)", "assay": "Luminex single-antigen beads; rank of MEM-E/02 reactivity among HLA-Ia alleles"}, "[29]": {"molecular_target": "HLA-B*1401 (B64) (human) (UniProt P01889)", "assay": "Luminex single-antigen beads; rank of MEM-E/02 reactivity among HLA-Ia alleles"}, "[30]": {"molecular_target": "HLA-A*2403 (A24) (human)", "assay": "Luminex single-antigen beads; rank of MEM-E/02 reactivity among HLA-Ia alleles"}, "[31]": {"molecular_target": "HLA-Cw*1203 (Cw12) (human) (UniProt P10321)", "assay": "Luminex single-antigen beads; rank of MEM-E/02 reactivity among HLA-Ia alleles"}, "[32]": {"molecular_target": "HLA-B*5001 (B50) (human)", "assay": "Luminex single-antigen beads; rank of MEM-E/02 reactivity among HLA-Ia alleles"}, "[33]": {"molecular_target": "HLA-B*5901 (B59) (human)", "assay": "Luminex single-antigen beads; rank of MEM-E/02 reactivity among HLA-Ia alleles"}, "[34]": {"molecular_target": "HLA-A*2901 (A29) (human) (UniProt P04439)", "assay": "Luminex single-antigen beads; rank of MEM-E/02 reactivity among HLA-Ia alleles"}, "[35]": {"molecular_target": "HLA-Cw*0401 (Cw4) (human)", "assay": "Luminex single-antigen beads; rank of MEM-E/02 reactivity among HLA-Ia alleles"}, "[36]": {"molecular_target": "HLA-B*6701 (B67) (human) (UniProt P01889)", "assay": "Luminex single-antigen beads; rank of MEM-E/02 reactivity among HLA-Ia alleles"}, "[37]": {"molecular_target": "HLA-B*2708 (B27) (human) (UniProt P01889)", "assay": "Luminex single-antigen beads; rank of MEM-E/02 reactivity among HLA-Ia alleles"}}}
{"substance": "murine monoclonal antibody MAb MEM-E/02", "values": [{"measurement": "MFI", "setting": "[1]", "value": "< 500", "unit": "MFI"}, {"measurement": "MFI", "setting": "[2]", "value": "< 500", "unit": "MFI"}, {"measurement": "MFI", "setting": "[3]", "value": 990, "unit": "MFI"}, {"measurement": "MFI", "setting": "[4]", "value": "< 500", "unit": "MFI"}, {"measurement": "% inhibition", "setting": "[5]", "value": 60, "unit": "%"}, {"measurement": "MFI", "setting": "[5]", "value": 737, "unit": "MFI"}, {"measurement": "MFI", "setting": "[6]", "value": 890, "unit": "MFI"}, {"measurement": "MFI", "setting": "[7]", "value": 722, "unit": "MFI"}, {"measurement": "MFI", "setting": "[8]", "value": 978, "unit": "MFI"}, {"measurement": "MFI", "setting": "[9]", "value": "< 500", "unit": "MFI"}, {"measurement": "MFI", "setting": "[10]", "value": 600, "unit": "MFI"}, {"measurement": "MFI", "setting": "[11]", "value": "< 500", "unit": "MFI"}, {"measurement": "MFI", "setting": "[12]", "value": "< 500", "unit": "MFI"}, {"measurement": "% inhibition", "setting": "[13]", "value": 65, "unit": "%"}, {"measurement": "MFI", "setting": "[13]", "value": 788, "unit": "MFI"}, {"measurement": "% inhibition", "setting": "[14]", "value": 60, "unit": "%"}, {"measurement": "MFI", "setting": "[14]", "value": 826, "unit": "MFI"}, {"measurement": "MFI", "setting": "[15]", "value": 522, "unit": "MFI"}, {"measurement": "MFI", "setting": "[16]", "value": 797, "unit": "MFI"}, {"measurement": "MFI", "setting": "[17]", "value": "< 500", "unit": "MFI"}, {"measurement": "MFI", "setting": "[18]", "value": "< 500", "unit": "MFI"}, {"measurement": "MFI", "setting": "[19]", "value": "< 500", "unit": "MFI"}, {"measurement": "MEM-E/02 Reactivity Rank", "setting": "[20]", "value": 8, "unit": "rank"}, {"measurement": "MEM-E/02 Reactivity Rank", "setting": "[21]", "value": 36, "unit": "rank"}, {"measurement": "MEM-E/02 Reactivity Rank", "setting": "[22]", "value": "> 65", "unit": "rank"}, {"measurement": "MEM-E/02 Reactivity Rank", "setting": "[23]", "value": "> 65", "unit": "rank"}, {"measurement": "MEM-E/02 Reactivity Rank", "setting": "[24]", "value": "> 65", "unit": "rank"}, {"measurement": "MEM-E/02 Reactivity Rank", "setting": "[25]", "value": "> 65", "unit": "rank"}, {"measurement": "MEM-E/02 Reactivity Rank", "setting": "[26]", "value": "> 65", "unit": "rank"}, {"measurement": "MEM-E/02 Reactivity Rank", "setting": "[27]", "value": 60, "unit": "rank"}, {"measurement": "MEM-E/02 Reactivity Rank", "setting": "[28]", "value": 28, "unit": "rank"}, {"measurement": "MEM-E/02 Reactivity Rank", "setting": "[29]", "value": 7, "unit": "rank"}, {"measurement": "MEM-E/02 Reactivity Rank", "setting": "[30]", "value": 63, "unit": "rank"}, {"measurement": "MEM-E/02 Reactivity Rank", "setting": "[31]", "value": 36, "unit": "rank"}, {"measurement": "MEM-E/02 Reactivity Rank", "setting": "[32]", "value": "> 65", "unit": "rank"}, {"measurement": "MEM-E/02 Reactivity Rank", "setting": "[33]", "value": 20, "unit": "rank"}, {"measurement": "MEM-E/02 Reactivity Rank", "setting": "[34]", "value": 48, "unit": "rank"}, {"measurement": "MEM-E/02 Reactivity Rank", "setting": "[35]", "value": "> 65", "unit": "rank"}, {"measurement": "MEM-E/02 Reactivity Rank", "setting": "[36]", "value": "> 65", "unit": "rank"}, {"measurement": "MEM-E/02 Reactivity Rank", "setting": "[37]", "value": "> 65", "unit": "rank"}]}
